Test results published in article PMC12292835, “Amylin Receptor 1 Mutagenesis Revealed a Potential Role of Calcitonin Serine 29 in Receptor Interaction” (Biomedicines, 2025).

Key:
[1] = molecular target: FITC-labeled AC413(6–25) with Y25P mutation; assay: fluorescence anisotropy, FITC-peptide probe binding; conditions: anisotropy at the highest receptor concentration shown, log [RAMP1 ECD-CTR ECD fusion] M = -6; parent: est. 0.19; read off a plot
[2] = molecular target: FITC-labeled salmon calcitonin (sCT) fragment(22–32); assay: as above; conditions: anisotropy at the highest receptor concentration shown for this mutant, read off a plot
[3] = molecular target: amylin receptor 1 ECD ECD (Homo sapiens) (UniProt P30988); conditions: cited from earlier work
[4] = molecular target: amylin receptor 1 extracellular domain, wild type (hRAMP1.24–111-(GSA)3-hCTR.34–141-H6) (human) (UniProt O60894); assay: competition binding assay; non-labeled sCT(22–32) as competitor on amylin receptor 1 ECDs (Figure S3); probe and conditions not shown
[5] = log [RAMP1 ECD-CTR ECD fusion] M = -5.5, parent: est. 0.19

Chain of salmon calcitonin fragment sCT(22-32) 22-32 (P01263 whole entry, looked up, the tested form may be a part): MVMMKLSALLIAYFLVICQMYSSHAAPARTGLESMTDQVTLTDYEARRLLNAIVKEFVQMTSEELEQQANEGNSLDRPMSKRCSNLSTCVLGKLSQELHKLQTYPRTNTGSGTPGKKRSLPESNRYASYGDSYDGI

Substance | response [1] | response [2, 5] | other results
amylin receptor 1 extracellular domain, wild type (hRAMP1.24–111-(GSA)3-hCTR.34–141-H6) (from UniProt O60894) N135D | 0.056 | 0.052 | –
amylin receptor 1 extracellular domain, wild type (hRAMP1.24–111-(GSA)3-hCTR.34–141-H6) (from UniProt O60894) D101E | 0.046 | 0.035 | –
amylin receptor 1 extracellular domain, wild type (hRAMP1.24–111-(GSA)3-hCTR.34–141-H6) (from UniProt O60894) N135A | 0.1 | 0.081 | –
salmon calcitonin fragment sCT(22-32) 22-32 (from UniProt P01263) | – | – | Ki [3]: 2500 nM
non-labeled salmon calcitonin (sCT) (22–32) fragment (peptide) | – | – | Ki [4]: 891 nM
amylin receptor 1 extracellular domain, wild type (hRAMP1.24–111-(GSA)3-hCTR.34–141-H6) (from UniProt O60894) D101A | 0.041 | – | response ([2]; log [RAMP1 ECD-CTR ECD fusion] M = -6, parent: est. 0.18): 0.035
